Bridges are numbered along the chain shown (N, C = ends).
What was measured:
[1] = Circular dichroism (CD) spectroscopy of linear and stapled peptides in water or 40% TFE/water (Example 3); format: physicochemical; details: for [0]208 mean residue ellipticity: λ = 208 nm; for [0]222 mean residue ellipticity: λ = 222 nm
Outline: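 Spectra 180–260 nm at 20 °C, 0.5 mM N-acetylated, C-amidated peptides in 0.1M phosphate buffer (water) or 40% TFE/water, 1 mm path, five scans averaged, buffer baseline subtracted. Mean residue ellipticity reported at 222 and 208 nm with the 222/208 ratio as helicity index.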

[2] = test system: IMR90 human fetal lung fibroblasts; experiment: Fibrosis assay: active TGF-β levels in TGF-β treated fibroblasts (ELISA); format: cell-based; details: % inhibition relative to positive control
Description: Compounds 132, 133, 135, 150, 152, 157-161, 265-269, 275, 277, and 278 were evaluated for their ability to inhibit fibrosis. IMR90 human fetal lung fibroblasts were obtained from ATCC and maintained in DMEM supplemented with 10% fetal bovine serum. In order to examine the effect of peptides on myofibroblast differentiation, 80% confluent cultures were serum starved overnight prior to addition of TGF-β (2 ng/mL, R&D Systems). Cells were treated with TGF-β for 24 hours prior to addition of peptides (10 ng/mL). 48 hours after addition of peptides, culture supernatants were collected and levels of active TGF-β measured using commercially available TGF-β ELISA (Quantikine, R&D Systems).
Values are the Mean and SDM n=3 replicates. *p<0.05, **p<0.01, ***p<0.001 when compared to the +TGFβ1 control. In FIG. 47, where bars are labeled with two compound numbers (“133/150” and “135/152”) this means that the data were pooled for the indicated compounds, i.e., for the non-acetylated and acetylated versions of the indicated peptides.

[3] = Function blocking score: total percent inhibition over migration, invasion, inflammation and fibrosis assays divided by number of assays; format: cell-based; details: total percent inhibition for all assays tested divided by number of assays
[4] = [θ]222/[θ]208 ratio in water, summary tables 15, 17, 19
[5] = as repeated in tables 16, 18, 20

Substance | [0]208 mean residue ellipticity at λ=208 nm ([1]; 40% TFE/water) | [0]222/[0]208 ratio of ellipticities ([1]; 40% TFE/water) | [0]222 mean residue ellipticity at λ=222 nm ([1]; 40% TFE/water) | [θ]222/[θ]208 ratio of ellipticities [1, 4] | [θ]222/[θ]208 ratio of ellipticities [1, 5] | [0]208 mean residue ellipticity at λ=208 nm ([1]; water) | [0]222/[0]208 ratio of ellipticities ([1]; water) | [0]222 mean residue ellipticity at λ=222 nm ([1]; water) | Fibrosis (% inhib.) [2] | Function blocking score (FBS) [3] | [0]222/[0]208 ratio of ellipticities ([1]; in water) | [0]222/[0]208 ratio of ellipticities ([1]; in 40% TFE/water) | alpha-helical character by CD (in words) ([1]; in water) | [0]208 mean residue ellipticity ([1]; in 40% TFE/water) | [0]208 mean residue ellipticity ([1]; in water) | [0]222 mean residue ellipticity ([1]; in 40% TFE/water) | [0]222 mean residue ellipticity ([1]; in water)
Ac-(cyclo-10-14, cyclo-15-19)-KIKHVVKLK[EENSK][KKSEE]SKLRSQLVKRK-NH2 (Ac-KIKHVVKLKEENSKKKSEESKLRSQLVKRK-NH2; lactam 10-14, 15-19; SMILES CC[C@H](C)[C@H](NC(=O)[C@H](CCCCN)NC(C)=O)C(=O)N[C@@H](CCCCN)C(=O)N[C@@H](Cc1c[nH]cn1)C(=O)N[C@H](C(=O)N[C@H](C(=O)N[C@@H](CCCCN)C(=O)N[C@@H](CC(C)C)C(=O)N[C@@H](CCCCN)C(=O)N[C@H]1CCC(=O)NCCCC[C@@H](C(=O)N[C@H]2CCCCNC(=O)CC[C@@H](C(=O)N[C@@H](CO)C(=O)N[C@@H](CCCCN)C(=O)N[C@@H](CC(C)C)C(=O)N[C@@H](CCCNC(=N)N)C(=O)N[C@@H](CO)C(=O)N[C@@H](CCC(N)=O)C(=O)N[C@@H](CC(C)C)C(=O)N[C@H](C(=O)N[C@@H](CCCCN)C(=O)N[C@@H](CCCNC(=N)N)C(=O)N[C@@H](CCCCN)C(N)=O)C(C)C)NC(=O)[C@H](CCC(=O)O)NC(=O)[C@H](CO)NC(=O)[C@H](CCCCN)NC2=O)NC(=O)[C@H](CO)NC(=O)[C@H](CC(N)=O)NC(=O)[C@H](CCC(=O)O)NC1=O)C(C)C)C(C)C) [Compound 268] | -.304E04 deg cm^2 dmol^−1 | 0.83 | -2.54E04 deg cm^2 dmol^−1 | 0.40 | 0.40 | -6.74E+03 deg cm^2 dmol^−1 | 0.40 | -2.71E+03 deg cm^2 dmol^−1 | 0 % inhib. | 14 |  |  |  |  |  |  | 
Ac-(cyclo-10-14, cyclo-15-19)-KIKHVVKLK[KENSE][EKSEK]SKLRSQLVKRK-NH2 [Compound 269] | -2.65E04 deg cm^2 dmol^−1 | 0.81 | -2.14E04 deg cm^2 dmol^−1 | 0.44 | 0.44 | -9.04E+03 deg cm^2 dmol^−1 | 0.44 | -3.99E+03 deg cm^2 dmol^−1 | 0 % inhib. | 13 |  |  |  |  |  |  | 
Ac-(cyclo-11-15, cyclo-16-20)-KIKHVVKLKD[ENSQK][ESEVK]KLRSQLVKRIK-NH2 [Compound 267] | -3.02E04 deg cm^2 dmol^−1 | 0.77 | -2.34E04 deg cm^2 dmol^−1 | 0.48 | 0.48 | -1.29E+04 deg cm^2 dmol^−1 | 0.48 | -6.14E+03 deg cm^2 dmol^−1 | 0 % inhib. | 0 | 0.48 |  |  |  |  |  | 
Ac-(cyclo-28-32)-NLKQKIKHVVKLKDENSQLKSEVSKLR[EQLVK]RKQN-NH2 (Ac-NLKQKIKHVVKLKDENSQLKSEVSKLREQLVKRKQN-NH2; lactam 28-32; SMILES CC[C@H](C)[C@H](NC(=O)[C@H](CCCCN)NC(=O)[C@H](CCC(N)=O)NC(=O)[C@H](CCCCN)NC(=O)[C@H](CC(C)C)NC(=O)[C@H](CC(N)=O)NC(C)=O)C(=O)N[C@@H](CCCCN)C(=O)N[C@@H](Cc1c[nH]cn1)C(=O)N[C@H](C(=O)N[C@H](C(=O)N[C@@H](CCCCN)C(=O)N[C@@H](CC(C)C)C(=O)N[C@@H](CCCCN)C(=O)N[C@@H](CC(=O)O)C(=O)N[C@@H](CCC(=O)O)C(=O)N[C@@H](CC(N)=O)C(=O)N[C@@H](CO)C(=O)N[C@@H](CCC(N)=O)C(=O)N[C@@H](CC(C)C)C(=O)N[C@@H](CCCCN)C(=O)N[C@@H](CO)C(=O)N[C@@H](CCC(=O)O)C(=O)N[C@H](C(=O)N[C@@H](CO)C(=O)N[C@@H](CCCCN)C(=O)N[C@@H](CC(C)C)C(=O)N[C@@H](CCCNC(=N)N)C(=O)N[C@H]1CCC(=O)NCCCC[C@@H](C(=O)N[C@@H](CCCNC(=N)N)C(=O)N[C@@H](CCCCN)C(=O)N[C@@H](CCC(N)=O)C(=O)N[C@@H](CC(N)=O)C(N)=O)NC(=O)[C@H](C(C)C)NC(=O)[C@H](CC(C)C)NC(=O)[C@H](CCC(N)=O)NC1=O)C(C)C)C(C)C)C(C)C) [Compound 277] | -3.10E04 deg cm^2 dmol^−1 | 0.85 | -2.65E04 deg cm^2 dmol^−1 | 0.64 | 0.64 | -1.46E+04 deg cm^2 dmol^−1 | 0.64 | -9.36E+03 deg cm^2 dmol^−1 | 52 % inhib. | 29 |  |  |  |  |  |  | 
Ac-KIKHVVKLKDENSQLKSEVSKLRSQLVKRK-NH2 [Compound 265] | -2.72E04 deg cm^2 dmol^−1 | 0.80 | -2.18E04 deg cm^2 dmol^−1 | 0.40 | 0.40 | -2.73E+04 deg cm^2 dmol^−1 | 0.40 | -1.09E+04 deg cm^2 dmol^−1 | 0 % inhib. | 28 |  |  |  |  |  |  | 
Ac-NLKQKIKHVVKLKDENSQLKSEVSKLRSQLVKRKQN-NH2 [Compound 275] | -3.52E04 deg cm^2 dmol^−1 | 0.83 | -2.96E04 deg cm^2 dmol^−1 | 0.35 | 0.35 | -9.71E+03 deg cm^2 dmol^−1 | 0.35 | -3.35E+03 deg cm^2 dmol^−1 | 0 % inhib. | 12 |  |  |  |  |  |  | 
Ac-VSKLRSQLVKRKQN-NH2 [Compound 132] |  |  |  | 0.13 | 0.13 |  |  |  | 0 % inhib. | 17 | 0.13 | 0.72 | nominal alpha helical character in water | -1.59E+04 deg cm^2 dmol^−1 | -4,85E+03 deg cm^2 dmol^−1 | -1.14E+04 deg cm^2 dmol^−1 | -1.10E+03 deg cm^2 dmol^−1

— patent US10562935B2, “Stapled peptides and uses thereof” (London Health Sciences Centre Research Inc., priority 2015, dated 2020)
